Test results published in the supplement of paper PMC10567573.

B1: EHMT1 (parent)
chain: FHKDCASRVNNASYCPHCGEESSK
B2: ZBED2 (parent)
chain: FHLAPARAGHHPNQYATCRLCGRQ

Variants of: B1
Experiment: protein stability index of a GFP-peptide fusion (GPS, HEK-293T) (PSI 1-6); higher = more stable
Details: c terminus: a fixed tail appended
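Further: lentivirally expressed fusions sorted by FACS into six bins by GFP to DsRed ratio, PSI derived from sequencing read proportions per bin multiplied by bin number.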

Protein stability index, by site and new letter:
F1: L 4.78 | I 4.55 | H 5.16
H17: V 3.54 | M 3.14 | R 3.5 | Y 2.87
S7: H 4.18 | M 3.54 | Y 2.12 | K 4.04
S13: I 2.17 | L 2.62 | D 3.81 | Q 3.8 | C 2.37
A6: M 3.07 | T 3.6 | L 2.85 | C 4.35
K3: I 2.7 | N 2.69 | G 2.73 | Y 2.61 | L 2.57
G19: Y 3.91 | K 3.65 | C 3.59 | N 3.5
N11: F 2.48 | Q 3.47 | G 3.37
S22: W 2.54 | N 3.93 | I 3.68 | E 4.01 | P 3.03 | T 3.54 | D 3.35 | Q 3.55 | K 3.77
Y14: P 3.9 | Q 4
V9: S 3.79 | E 3.87 | R 3.63 | Y 3.21 | H 4.71
P16: D 3.52
E20: D 3.92 | A 3.21
D4: C 4.12 | G 2.56
C5: S 2.56 | T 2.25 | G 2.52 | L 2.4 | N 2.61
H2: S 3.1 | A 2.61 | D 4.8 | V 1.96 | P 3.37
A12: P 3.25 | L 3.06 | N 3.37
S23: F 3.63 | L 3.15 | Q 3.89
C18: H 3.62 | I 3.04 | L 2.76 | T 3.58 | P 3.79
C15: Y 2.74 | R 3.49 | H 3.56 | K 3.68
K24: S 3.48 | G 3.5
E21: Y 2.63 | C 3.07 | F 2.93 | D 3.22 | W 2.8
R8: I 3.94 | K 3.46 | W 1.91 | M 3.37
N10: M 2.98 | G 3.74 | K 3.1 | F 2.82

Variants of: B2
Experiment: as above
Details: c terminus: a fixed tail appended

Protein stability index of substitutions, site by site:
A4: T 1.84 | D 1.59 | C 2.48 | E 2.05 | N 1.48 | S 2.74 | G 2.19 | Q 1.91 | M 1.39 | W 2.73 | L 1.17 | K 2.32 | F 2.14 | H 1.95 | I 2.53
P5: S 1.24 | E 2.36 | Q 2.02 | L 2 | H 1.99 | V 1.96 | F 2.03 | D 2.83 | A 2.78 | C 2.04 | G 1.77 | R 1.64 | N 1.84 | M 1.05 | I 2.13 | T 2.32 | K 1.83 | Y 1.52
H11: M 2.35 | Q 1.29 | F 1.98 | A 2.48 | D 1.46 | W 1.04 | K 1.58 | C 2.12 | E 2.04 | T 1.95 | N 1.39 | G 2.01 | V 1.98 | P 1.4 | I 1.33
A6: P 1.93 | N 1.65 | G 2.54 | W 1.36 | S 1.61 | Y 2.19 | F 1.68 | V 2.15 | D 1.89 | L 1.67 | C 3 | T 1.51 | H 1.92 | K 1.4 | R 1.77 | M 1.67 | I 1.71 | E 2.36 | Q 1.8
R7: A 1.74 | Q 1.93 | Y 2.09 | I 1.55 | F 2.11 | G 2.22 | P 1.92 | M 2.13 | T 2.1 | C 3.77 | E 2.04 | S 1.4 | D 2.34 | K 2.59 | N 2.15 | H 2.61 | V 1.73 | L 1.92
H10: F 1.9 | V 1.19 | Q 2.13 | A 1.22 | K 2.63 | E 2.32 | Y 1.7 | M 2.81 | I 2.3 | L 1.7 | D 1.27 | P 2.05 | C 2.01 | T 3.52 | R 1.21 | W 1.78 | S 2.24 | N 1.55 | G 1.34
Y15: V 1.57 | K 1.53 | E 2.43 | F 2.54 | P 1.07 | H 2.14 | R 1.15 | Q 2.65 | C 1.44 | I 1.63
P12: L 2.12 | C 2.67 | H 3.06 | V 1.49 | A 1.5 | Y 1.47 | S 2.23 | G 2.48 | W 1.52 | I 1.95 | F 2.1
A8: V 1.65 | K 1.69 | F 2.6 | L 2.47 | H 1.75 | N 2.31 | E 2.34 | Y 3.15 | M 2.75 | S 1.76 | Q 2.02 | D 1.36 | I 2.73 | T 1.83 | G 2.87 | R 1.3 | P 2.56 | W 3.08 | C 3.28
G9: P 1.69 | Q 2.11 | A 1.86 | W 2.05 | N 2.11 | I 1.84 | T 2.44 | M 2.27 | F 1.77 | L 2.55 | E 1.97 | V 1.37 | H 2.22 | Y 1.99 | C 3.72 | K 1.08 | S 2.51 | D 1.83
A16: K 1.03 | M 1.61 | L 1.42 | E 1.93 | H 2.27 | F 2.37 | I 2.69 | C 2.85 | G 1.59
F1: D 3.36 | E 3.31 | K 2.53 | L 2.13 | N 2.73 | G 1.71 | Q 2.78 | V 2.74 | S 3.33 | R 2.77 | W 1.59 | A 2.9 | I 2.21 | P 3.07 | T 2.45 | Y 1.43 | M 2.1 | C 2.58 | H 2.46
L3: C 1.71 | Q 1.13 | D 2.5 | P 3.45 | F 1.93 | E 2.75 | T 2.25 | N 2.23 | K 2.09 | S 1.45 | V 1.84 | Y 1.95 | H 1.71 | A 1.61 | G 1.53 | I 1.38 | M 1.84
H2: T 2.76 | S 1.59 | C 1.66 | D 2.41 | N 2.65 | M 2.43 | P 2.78 | Q 2.51 | L 1.86 | G 1.88 | I 2.37 | E 2.6 | A 1.46 | F 1.42 | K 1.95 | W 1.26
Q14: K 2.58 | C 2.11 | S 1.48 | Y 2.31 | T 1.47 | P 2.48 | D 1.99 | E 2.16
N13: D 1.43 | T 1.52 | K 1.77 | A 2.34 | C 2.97 | Q 1.98 | E 3.21 | M 1.52 | I 1.42 | Y 1.55
